Source: paper PMC5148605, “Prefabrication of a ribosomal protein subcomplex essential for eukaryotic ribosome formation” (eLife, 2016)

Experiments:
GST-Kap123 = target: T1, GST-Kap123 (S. cerevisiae, UniProt P40069 1-1113); assay: pull-down; GST-tagged importins immobilised on Glutathione Sepharose, incubated with buffer, purified Fap7 or Fap7:uS11 for 1 hr, in presence of 100 µl competing E. coli lysate; Coomassie and Western; conditions: both partners purified
T1 construct: importin Kap123, S. cerevisiae; source: E. coli BL21, purified as previously described
T1 sequence (looked up): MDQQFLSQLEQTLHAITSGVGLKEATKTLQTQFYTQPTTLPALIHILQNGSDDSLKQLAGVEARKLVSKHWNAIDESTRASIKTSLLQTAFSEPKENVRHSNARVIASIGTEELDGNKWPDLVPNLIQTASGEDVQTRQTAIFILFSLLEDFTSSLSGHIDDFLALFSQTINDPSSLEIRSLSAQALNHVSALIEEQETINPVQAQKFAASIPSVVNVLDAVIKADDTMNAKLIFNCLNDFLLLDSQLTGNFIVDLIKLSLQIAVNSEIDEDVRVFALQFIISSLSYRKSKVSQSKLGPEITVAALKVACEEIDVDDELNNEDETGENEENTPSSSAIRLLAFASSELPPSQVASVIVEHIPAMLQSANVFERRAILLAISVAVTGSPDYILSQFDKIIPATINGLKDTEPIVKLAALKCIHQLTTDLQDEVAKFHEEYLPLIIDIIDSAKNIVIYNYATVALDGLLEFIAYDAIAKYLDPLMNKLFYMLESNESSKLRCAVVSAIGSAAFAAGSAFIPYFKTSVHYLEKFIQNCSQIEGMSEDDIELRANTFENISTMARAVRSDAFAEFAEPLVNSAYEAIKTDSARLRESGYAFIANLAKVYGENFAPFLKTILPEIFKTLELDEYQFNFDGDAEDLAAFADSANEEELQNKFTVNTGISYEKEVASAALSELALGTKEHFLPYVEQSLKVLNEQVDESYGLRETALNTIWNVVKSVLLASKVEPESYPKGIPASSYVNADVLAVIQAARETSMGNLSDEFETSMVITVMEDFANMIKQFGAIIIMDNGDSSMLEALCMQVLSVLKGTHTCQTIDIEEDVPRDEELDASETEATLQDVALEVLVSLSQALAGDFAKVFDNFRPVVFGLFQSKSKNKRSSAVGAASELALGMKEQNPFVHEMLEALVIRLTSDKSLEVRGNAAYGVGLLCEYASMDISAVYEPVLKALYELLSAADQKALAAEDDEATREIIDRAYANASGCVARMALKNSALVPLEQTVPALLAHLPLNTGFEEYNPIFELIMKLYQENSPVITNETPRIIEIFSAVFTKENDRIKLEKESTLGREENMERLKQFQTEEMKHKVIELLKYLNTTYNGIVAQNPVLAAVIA

GST-Msn5 = target: T2, GST-Msn5 (S. cerevisiae, UniProt P52918 1-1224); assay: as above; conditions: both partners purified
T2 construct: Msn5, S. cerevisiae; source: E. coli BL21, purified as previously described
T2 sequence (looked up): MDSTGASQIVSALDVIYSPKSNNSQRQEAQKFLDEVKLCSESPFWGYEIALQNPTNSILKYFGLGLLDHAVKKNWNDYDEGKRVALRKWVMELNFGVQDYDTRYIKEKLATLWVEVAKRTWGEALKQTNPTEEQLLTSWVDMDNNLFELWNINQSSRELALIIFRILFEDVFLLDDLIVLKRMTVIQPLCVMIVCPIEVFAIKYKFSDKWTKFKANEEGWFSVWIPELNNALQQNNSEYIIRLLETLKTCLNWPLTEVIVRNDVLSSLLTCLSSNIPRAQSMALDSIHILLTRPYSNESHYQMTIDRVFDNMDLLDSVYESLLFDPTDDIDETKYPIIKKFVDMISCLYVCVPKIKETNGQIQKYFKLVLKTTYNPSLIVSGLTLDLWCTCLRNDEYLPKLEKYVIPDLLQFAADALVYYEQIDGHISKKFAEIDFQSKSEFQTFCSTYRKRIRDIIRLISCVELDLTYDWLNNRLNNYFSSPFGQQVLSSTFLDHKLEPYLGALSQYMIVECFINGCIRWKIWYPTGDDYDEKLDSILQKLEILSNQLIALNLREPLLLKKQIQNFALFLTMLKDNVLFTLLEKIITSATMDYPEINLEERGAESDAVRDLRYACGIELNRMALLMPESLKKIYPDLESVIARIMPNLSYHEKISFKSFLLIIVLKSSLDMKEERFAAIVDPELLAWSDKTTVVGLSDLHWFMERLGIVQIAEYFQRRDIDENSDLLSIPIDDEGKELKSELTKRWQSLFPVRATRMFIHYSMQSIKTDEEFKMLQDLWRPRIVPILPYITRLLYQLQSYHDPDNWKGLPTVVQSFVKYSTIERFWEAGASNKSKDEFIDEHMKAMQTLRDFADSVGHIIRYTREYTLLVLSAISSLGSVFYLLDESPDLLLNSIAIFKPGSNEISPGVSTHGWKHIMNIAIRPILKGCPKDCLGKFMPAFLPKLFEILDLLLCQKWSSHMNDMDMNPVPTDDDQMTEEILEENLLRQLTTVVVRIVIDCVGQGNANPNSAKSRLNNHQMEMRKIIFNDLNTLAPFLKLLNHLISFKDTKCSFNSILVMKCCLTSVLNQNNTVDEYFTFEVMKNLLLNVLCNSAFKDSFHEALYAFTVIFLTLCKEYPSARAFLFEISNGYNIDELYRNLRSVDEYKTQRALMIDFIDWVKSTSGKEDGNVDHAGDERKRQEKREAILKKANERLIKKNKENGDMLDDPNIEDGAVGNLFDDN

- binding result (GST-Kap123): binds
- binding result (GST-Msn5): binds
B1: Fap7 (enzyme, S. cerevisiae, UniProt Q12055 1-197, looked up)
chain: MEARRYGPNIIVTGTPGCGKSSTCEFLKNKLKDYKYYNISDFAKDNDCFEGYDEGRKSHIVDEDKLLDMLEPLLRQGNSIVDWHVNDVFPERLIDLVVVLRCDNSNLYSRLHARGYHDSKIEENLDAEIMGVVKQDAVESYEPHIVVELQSDTKEDMVSNVSRIVAWEKMWLEQHPDGVTNEYQGPRSDDEDDEDSE
notes: Fap7, conserved ATPase, S. cerevisiae (YDL166C); only the complex is printed as His6-Fap7:uS11; also called purified Fap7; Fap7 alone; source: E. coli BL21, purified
